In publication PMC2692298 (Science signaling, 2008):

Target: stromal cell derived factor-1 (SDF-1, also known as CXCL12), wild type (UniProt P48061 22-93)

Kd: 200 ± 200 nM
fold tighter binding than the unsulfated peptide p38: ~20 fold
B1: CXCR4 N-terminal peptide p38-sY3 (sulfotyrosine at positions 7, 12 and 21) (peptide)
peptide: GSMEGISIYTSDNYTEEMGSGDYDSMKEPAFREENANFNK
modifications: sulfotyrosine at positions 7, 12 and 21
